Assays:
Assay type in all cases: in vivo
[1] = Growth performance of weaner pigs treated with IL-1ra or saline, with or without in-feed antibiotics (Example 1); conditions: for warm carcass weight: FIG. 6; for rate of gain over the grower phase: D79 and D93, FIG. 3
Description: Recombinant porcine. IL-1ra was expressed in E. coli and purified using a polyhis tag system. IL-1ra was tested for biological activity in a bioassay prior to the start of the experiment.
Male weaner pigs (28 days old) were allocated to treatment groups of 20 as described in Table 1. The mean weight for each treatment group was equal, with equal variance. Pigs were housed in group pens of 20, with 2 pens provided with medicated water and feed as per current industry standards, while 2 pens were given unmedicated water and feed. Pigs were injected twice weekly with recombinant IL-1ra or saline (control), in a volume of 1 ml, for the duration of the weaner phase (42 days), as described in Table 2.
Upon commencement of the weaner phase (day 0) and upon completion of the weaner phase (day 42), pigs were […]

[2] = Growth performance of pigs treated with IL-1ra or saline at zero, reduced and normal antibiotic medication (Example 2); conditions: for total group weight at the end of the weaner phase: FIG. 10
Description: Recombinant porcine IL-1ra was expressed in E. coli and purified using a polyhis tag system. IL-1ra was tested for biological activity in a bioassay prior to the start of the experiment.
The experiment was undertaken in a commercial environment where the pigs were weaned at 28 days of age. All injections were 1 ml. There were 16 pigs per treatment, 8 males and 8 females per treatment. The mean weight of treatment groups were similar at the start of the experiment.
A. Saline injection, 1 ml IM neck muscle.
B. 100 ug IL-1ra injection, 1 ml IM neck muscle. Injections were administered twice weekly during the weaner stage, and weekly throughout the grower and finisher stages.
Pigs were weaned and weighed at the commencement of the experiment (D0, W0). Weights were recorded weekly throughout the weaner phase (W0-W6), during the grower phase (W9), at the end of the grower phase (W13), during the finisher phase (W 16) and at the end of the finisher phase prior to slaughter at W19. Blood samples were collected at the start of the experiment and at the end of the weaner phase, grower phase and finisher phase. Haematology and immunological analyses were performed. At slaughter, carcass characteristics including P2 backfat measurements and dressed carcass weight were noted.

[3] = test system: Brachyspira (Serpulina) hyodysenteriae; test: Swine dysentery challenge of weaner pigs, prophylactic treatment (Example 4); conditions: for reduction in spirochaete culture scores at post-mortem compared to saline: FIG. 25
Description: Male pigs with a mean starting weight of 6.5 kg, were allocated to treatment groups consisting of eight pigs. Pigs were housed in group pens, with each pen containing a replicate from each of the treatment groups. One group of 8 pigs was housed in a separate room and left uninfected to act as untreated controls. Pigs were provided with pelleted feed and water ad libitum.
Prior to swine dysentery challenge, pigs were treated with 200 μg recombinant IL-1ra or 1 ml saline via intramuscular injection. Lincocin was delivered as a 2 ml intramuscular injection according to the manufacturer's instructions. Cytokines, antibiotics and challenges were performed at intervals described in the experimental protocol outlined in Table 5. Pigs were infected with Brachyspira hyodysenteriae at day 0, day 1 and day 2, given as an oral bolus of 120 ml of spirochaete culture in log phase of growth, containing approximately 10^8 cells.
Faecal swabs and blood samples were taken from each pig at intervals described in Table 5. Faecal swabs were cultured for the presence of spirochaetes. Blood samples were assayed for immunological parameters as described in Example 3 above. Pigs were weighed at weekly intervals throughout the experiment, which was terminated by euthanasia on days 19 and 20 after the initial challenge. At post-mortem, swabs from areas of the hindgut were cultured for the presence of spirochaetes, and the gross pathological condition of the gastro-intestinal tissue noted.

[4] = test system: Actinobacillus pleuropneumoniae (App); test: App challenge of pigs, prophylactic low or high doses of IL-1ra or IL-1ra+IL-4 (Table 8); conditions: for rate of gain: last 10 days of challenge, FIG. 44
Description: Blood was sampled from pigs by venipuncture at −24 h, +0 h, +24 h and +3 weeks from challenge. Blood was assayed for immunological parameters as previously described. Pigs were weighed at day −1, day 10 and at 3 weeks.

B1: IL-1ra: Recombinant porcine IL-1ra expressed in E. coli and purified using a polyhis tag system (protein, UniProt Q29056 26-177, looked up)
Interleukin-1 receptor …: HPLGKRPCRMQAFRIWDVNQKTFYLRNNQLVAGYLQGPNTKLEEKIDVVPVEPHFVFLGIHGGKLCLSCVKSGDEMKLQLDAVNITDLRKNSEQDKRFTFIRSDSGPTTSFESAACPGWFLCTALEADQPVGLTNTPKAAVKVTKFYFQQDQ
modifications: polyhistidine tag
notes: Recombinant porcine IL-1ra expressed in E. coli and purified using a polyhis tag system
rate of gain over weeks 5 and 6 of the weaner phase ([1]; 200 μg IL-1ra twice weekly, both medicated and non-medicated feeding regimes, FIG. 2): outperforming saline treated pigs | rate of gain over the first 4 weeks of the weaner phase ([1]; 200 μg IL-1ra twice weekly, vs saline controls, FIG. 1): performed as well as saline controls | warm carcass weight ([1]; IL-1ra in absence of antibiotics): equal to that obtained by pigs fed antibiotics and treated with saline | warm carcass weight ([1]; IL-1ra in presence of antibiotics): greater than that of their saline-treated counterparts | average weight at slaughter, heavier than pigs treated with saline and provided with in-feed antibiotics ([1]; IL-1ra in weaner phase in absence of in-feed antibiotics, FIG. 5): 0.7 kg | rate of gain over the grower phase ([1]; IL-1ra in weaner phase with medicated diet): highest rate of gain | rate of gain over the grower phase ([1]; IL-1ra in weaner phase without in-feed medication): grow as quickly as pigs treated with saline and provided with in-feed medication | rate of gain over the finisher phase ([1]; IL-1ra in weaner phase without medicated diet, FIG. 4): highest rate of gain of all groups | feed conversion ratio during the finisher phase ([1]; day 93-day 133, treatment during weaner phase, IL-1ra in absence of in-feed antibiotics, FIG. 7): 2.49 | weight at the end of the weaner phase ([2]; 100 ug IL-1ra, all 3 levels of medication, FIG. 8): weighed more than their saline treated counterparts | P2 backfat levels at slaughter ([2]; IL-1ra in absence of antibiotics, FIG. 13): comparable to those of pigs treated with saline and provided full antibiotic medication | finishing weight, more than saline treated pigs ([2]; absence of antibiotic medication, FIG. 12): 16.7% | number of pigs experiencing weight loss or mortality over the weaner period ([2]; absence of antibiotics, FIG. 9): 2 out of 16 pigs | total group weight at the end of the weaner phase ([2]; full medication): 451 kg | total group weight at the end of the weaner phase ([2]; no medication): 369 kg | increase in productivity (group weight vs saline) ([2]; normal antibiotic administration): 11.1% | increase in productivity (group weight vs saline) ([2]; reduced antibiotic administration): 20.4% | total group weight at the end of the weaner phase ([2]; reduced medication): 390 kg | weight at the end of the grower phase ([2]; regardless of medication level, FIG. 11): heavier than all the saline treatment | deleterious effects of continuous administration ([2]; twice weekly in weaner stage, weekly in grower and finisher stages): did not have any deleterious effects | increase in productivity (group weight vs saline) ([2]; zero antibiotic administration): 26.4% | reduction in spirochaete culture scores at post-mortem compared to saline ([3]; anterior colon): 15.8% | reduction in spirochaete culture scores at post-mortem compared to saline ([3]; faecal spirochaetes): 42.1% | reduction in spirochaete culture scores at post-mortem compared to saline ([3]; posterior colon): 47.1% | net reduction in spirochaetes throughout the GIT ([3]; vs saline): 27% | faecal condition at post-mortem (clinical signs) ([3]; vs saline treated controls, FIG. 26): fewer signs of dysentery-affected faeces | production of the pro-inflammatory cytokines TNF, IL-8 and IL-1 (mRNA in peripheral blood) ([3]; vs saline treated controls, FIGS. 27, 28 and 29): reduce the production | improved growth compared to saline treated controls ([4]; 21 days of App challenge, low and high doses, FIG. 46): 13.5% | amount of lung affected by App lesions ([4]; high dose, FIG. 47): reduced the amount of lung affected by App lesions | production of the pro-inflammatory cytokine IL-8 (mRNA in lung tissue) ([4]; high dose, FIG. 49): greatly reduced | increase in rate of gain vs saline ([4]; high dose, first 10 days of App challenge, FIG. 43): > 100 g/day | degree of pleurisy seen at post-mortem ([4]; high doses, FIG. 48): reduced | production of TNFα (mRNA in lung tissue) ([4]; high doses, FIG. 50): inhibited | rate of gain ([4]; high doses): 1170 g/day | weight gained during the 21-day challenge period ([4]; low and high doses, FIG. 45): 17.9 kg | rate of gain ([4]; low doses): 1250 g/day
